Measurements: US20040241754A1, “Modulating neuronal plasticity” (The Salk Institute for Biological Studies, priority 2003, published 2004)
“Also recorded” adds a separate entry of the source. Ends that are not written are not given here.

How the values were obtained:
[1] = system: mossy fiber synapses of hippocampal CA3 pyramidal neurons; test: Forskolin-mediated potentiation of mossy fiber EPSCs; format: cell-based, mice; details: for forskolin potentiation of mossy fiber EPSCs after pre-application of Fc fusion protein: Fc fusion protein bath applied before forskolin; for effect on forskolin enhancement / mossy fiber transmission: bath application
[2] = system: mossy fiber synapses of hippocampal CA3 pyramidal neurons; test: Mossy fiber LTP, whole-cell patch clamp in hippocampal slices; format: cell-based, mice; details: for LTP (potentiation of EPSCs after tetanic stimulation): bath application 5 μg/ml
Experimental: The role of the GluR2 subunit in LTP at mossy fiber terminals was evaluated in whole cell patch clamp experiments using hippocampal CA3 pyramidal neurons. Briefly, transverse hippocampal slices (350 μm) were made from P12-18 mice (strain 129SvEv) as previously described (Contractor et al., Neuron 29, 209-16. (2001)). Slices were transferred to a recording chamber, and whole-cell patch clamp recordings made from visually identified pyramidal cells in the CA3 region of the hippocampus. The recording electrode (i.e., patch electrode) is filled with an “internal” solution described below. A seal between the glass of the electrode and the membrane of the cell is made. The seal is then “broken through” by pushing the electrode through the membrane to gain low resistance access to the cell interior and enable voltage clamping of the cell membrane. This also allows dialysis of the cell with test reagents such as peptides and antibodies. A stimulating electrode is attached to a current source and allows current to stimulate action potentials while a reference electrode is placed in the recording bath. The composition of the internal solution was: 95 mM CsF, 25 mM CsCl, 10 mM Cs-HEPES, 10 mM Cs-EGTA, 2 mM NaCl, 2 mM Mg-ATP, 10 mM QX-314, 5 mM TEA-Cl, 5 mM 4-AP, pH adjusted to 7.3 with CsOH.
Peptides were added directly to the internal solution on the day of the experiment from frozen stocks in protease inhibitors made up in phosphate buffered saline (PBS). To avoid leakage of peptides or antibodies into the extracellular space, pipette tips were filled with normal internal solution and then the pipette was backfilled with peptide/antibody containing internal fluid. The final concentration of peptides was 50 μM in all experiments. The final concentration of protease inhibitors were: bestatin 2 μg/ml, leupeptin 25 ng/ml, pepstatin 35 ng/ml, aprotinin 100 ng/ml.
In control experiments where peptides were not included, internal solutions were made up in exactly the same way with protease inhibitors in PBS but lacking any added peptide. Antibodies were made up in PBS stock and added directly to the internal solution at a final concentration of 20 μg/ml. The pH and osmolarity of all internal solutions were checked before use. Series resistances (Rs) were generally <10M and were continuously monitored throughout the duration of the experiment. […] Experiments using mutant mice were performed with heterozygous breedings blind to the genotype of the animal.
Mossy fiber EPSCs were evoked with a monopolar glass electrode positioned in the stratum lucidum. EPSCs were evaluated using a 40 ms interval between recordings. All recordings were made in the continuous presence of bicuculline (10 μM), picrotoxin (50 μM) and the NMDA receptor antagonist D-AP5 [D(-)-2-Amino-5-phosphonopentanoic acid; 50 μM]. The group II mGluR agonist, LCCG-1 (10 μM), which selectively depresses mossy fiber transmission, was applied at the end of each experiment. LTP was induced by tetanic stimulation comprising three 1 s stimulations (100 Hz) with a 10 s interval. Data are presented as mean±SEM. Parameters were compared using the Student's unpaired t-test where not specified, and the K-S test, p<0.05 was considered significant.
Cumulative probability is determined by ranking the EPSC data set from the highest to the lowest value from 20 to 30 minutes post tetanization. Each point is graphed with its corresponding percentile. […] The lowest LTP value was about 40% signified by the lowest point on the 1 st graph (open circles) and the largest LTP was about 160%.

[3] = target: presynaptic ephrin-B ligands; test: cell-based or functional assay
[4] = peptide 50 μM in patch electrode, 40 ms interval
[5] = Fc fusion protein, bath application

C=C[C@@]1(C)CC(=O)[C@]2(O)[C@@]3(C)[C@@H](O)CCC(C)(C)[C@@H]3[C@H](O)[C@H](OC(C)=O)[C@@]2(C)O1 [forskolin, reference compound]
potentiation of mossy fiber EPSCs by forskolin ([1]; bath application of forskolin alone, 20-30 minutes after application): 275±38%

N[C@H](C(=O)O)[C@H]1C[C@@H]1C(=O)O [LCCG-1, (2S,1′S,2′S)-2-(carboxycyclopropyl)glycine, reference compound]
effect on mossy fiber EPSC ([2]; applied at the end of each experiment, 10 μM): caused inhibition of the EPSC

LHLHGTGIQV [EphA7 peptide, reference compound]
LTP (potentiation of the EPSC after tetanic stimulation) ([2]; peptide 50 μM in patch electrode (postsynaptic), 25 to 30 minutes after tetanic stimulation): 250±46%
LTP PPR (paired pulse ratio after LTP induction) [2, 4]: 2.3±0.22
control PPR (paired pulse ratio before LTP induction) [2, 4]: 2.8±0.15
PTP (post-tetanic potentiation) ([2]; peptide 50 μM in patch electrode, immediately following tetanic stimulation): 990±180%
paired pulse ratio after LTP induction versus pretetanic ([2]; peptide in patch electrode): significantly reduced relative to pretetanic recording

B1: EphB2-Fc fusion protein (Fc fusion, mouse, not shown: a dimerising Fc or GST)
chain (part 1 of 2): VEETLMDSTTATAELGWMVHPPSGWEEVSGYDENMNTIRTYQVCNVFESSQNNWLRTKFIRRRGAHRIHVEMKFSVRDCSSIPSVPGSCKETFNLYYYEADFDLATKTFPNWMENPWVKVDTIAADESFSQVDLGGRVMKINTEVRSFGPVSRNGFYLAFQDYGGCMSLIAVRVFYRKCPRIIQNGAIFQETLSGAESTSLVAARGSCIANAEEVDVPIKLYCNGDGEWLVPIGRCMCKAGFEAVENGTVCRGCPSGTFKANQGDEACTHCPINSRTTSEGATNCVCRNGYYRADLDPLDMPCTTIPSAPQAVISSVNETSLMLEWTPPRDSGGREDLVYNIICKSCGSGRGACTRCGDNVQYAPRQLGLTEPRIYISDLLAHTQYTFEIQAVNGVTDQSPFSPQFASVNITTNQAAPSAVSIMHQVSRTVDSITLSWSQPDQPNGVILDYELQYYEKELSEYNATAIKSPTNTVTVQGLKAGAIYVFQVRARTVAGYGRYSGKMYFQTMTEAEYQTSIKEKLPLIVGDIEGRMD
chain (part 2 of 2): HHHHH
LTP after tetanic stimulation in the presence of EphB2-Fc [3]: 134%
basal EPSC amplitude during bath application (5 µg/ml) [3]: 145%
forskolin potentiation of mossy fiber EPSCs 30 mins after washout, after EphB2-Fc [3]: 118%
post-tetanic potentiation [3]: 420%
potentiation of baseline EPSC amplitudes on bath application [3]: 148%

B2: EphB2-Fc: mouse EphB2 (Met 1 to Lys 546), a linker, Human gamma heavy chain (Pro 100 to Lys 330) and (His)5 (protein)
chain (part 1 of 2): B1 chain (part 1 of 2)
chain (part 2 of 2): HHHHH
modifications: left off: a dimerising Fc or GST
forskolin potentiation of mossy fiber EPSCs after pre-application of Fc fusion protein [1]: 118±10%
effect on forskolin enhancement / mossy fiber transmission [1]: inhibits subsequent forskolin effects
potentiation of baseline amplitudes ([1]; bath applied before forskolin): 148±19%
LTP PPR [2, 5]: 2.2 ±0.2
PTP (post-tetanic potentiation) [2, 5]: 420±85%
control PPR [2, 5]: 2.5±0.3
effect on LTP induction [2, 5]: inhibits subsequent tetanus induced LTP
paired pulse ratio, effect [2, 5]: small, non-significant reduction in the baseline PPR; also recorded: not significantly reduced
LTP (potentiation of EPSCs after tetanic stimulation) ([2]; Fc fusion protein): 134±13%
increase in the basal EPSC amplitude ([2]; bath application 5 μg/ml for twenty minutes during baseline recording): 145±13%

B3: ephrin-B1-Fc: mouse ephrin (Met 1 to Ser 229), a linker, Human gamma heavy chain (Pro 100 to Lys 330) and (His)5 (protein)
chain (part 1 of 2): ATPLAKNLEPVSWSSLNPKFLSGKGLVIYPKIGDKLDIICPRAEAGRPYEYYKLYLVRPEQAAACSTVLDPNVLVTCNKPHQEIRFTIKFQEFSPNYMGLEFKKYHDYYITSTSNGSLEGLENREGGVCRTRTMKIVMKVGQDPNAVTPEQLTTSRPSKESDNTVKTATQAPGRGSQGDSDGKHETVNQEEKSGPGAGGGGSGDSIEGRMD
chain (part 2 of 2): HHHHH
modifications: left off: a dimerising Fc or GST
forskolin potentiation of mossy fiber EPSCs after pre-application of Fc fusion protein [1]: 219±15%
effect on forskolin enhancement / mossy fiber transmission [1]: does not affect Forskolin enhancement
PTP (post-tetanic potentiation) [2, 5]: 430±100%
effect on LTP induction [2, 5]: significantly impair LTP induction
effect on basal synaptic transmission / baseline EPSC amplitudes [2, 5]: did not alter the baseline EPSC amplitudes; also recorded: does not affect basal transmission
effect on post-tetanic potentiation / short-term plasticity [2, 5]: significantly impaired
paired pulse ratio, effect [2, 5]: no significant difference in PPR
LTP (potentiation of EPSCs after tetanic stimulation) ([2]; Fc fusion protein): 139±12%
